Target: T1, MBP-EBF1 (Arabidopsis thaliana, UniProt Q9SKK0 1-628)
T1 construct: EBF1, Arabidopsis thaliana, AT2G25490; source: purified using amylose resin
T1 sequence (looked up): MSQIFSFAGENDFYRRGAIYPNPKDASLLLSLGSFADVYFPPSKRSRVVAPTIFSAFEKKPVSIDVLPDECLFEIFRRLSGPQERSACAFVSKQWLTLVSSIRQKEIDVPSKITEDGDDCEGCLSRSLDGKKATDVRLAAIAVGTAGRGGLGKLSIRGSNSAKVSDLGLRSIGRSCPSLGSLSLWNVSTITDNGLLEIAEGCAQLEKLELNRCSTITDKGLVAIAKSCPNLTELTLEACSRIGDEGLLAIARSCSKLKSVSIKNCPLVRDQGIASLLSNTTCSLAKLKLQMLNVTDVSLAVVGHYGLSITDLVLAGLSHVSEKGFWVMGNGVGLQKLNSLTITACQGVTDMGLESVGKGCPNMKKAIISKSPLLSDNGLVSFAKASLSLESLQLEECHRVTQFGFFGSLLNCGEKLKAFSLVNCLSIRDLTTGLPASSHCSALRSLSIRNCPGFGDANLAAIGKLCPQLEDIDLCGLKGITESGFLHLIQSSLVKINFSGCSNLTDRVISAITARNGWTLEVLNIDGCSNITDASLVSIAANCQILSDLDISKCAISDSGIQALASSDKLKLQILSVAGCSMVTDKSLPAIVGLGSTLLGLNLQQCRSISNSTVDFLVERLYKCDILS
Test: pull-down; glutathione beads with 1 µg GST-BZR1 incubated with 1 µg MBP or MBP-EBF1; 20 mM Tris-HCl pH 7.5, 100 mM NaCl, 1 mM EDTA; washed 10 times with 300 mM NaCl, 0.5% Triton X-100; immunoblot with anti-MBP
Conditions: both partners purified

B1: GST-BZR1 (natural protein, Arabidopsis thaliana, UniProt Q8S307 1-336, looked up)
chain: MTSDGATSTSAAAAAAAAAAARRKPSWRERENNRRRERRRRAVAAKIYTGLRAQGDYNLPKHCDNNEVLKALCVEAGWVVEEDGTTYRKGCKPLPGEIAGTSSRVTPYSSQNQSPLSSAFQSPIPSYQVSPSSSSFPSPSRGEPNNNMSSTFFPFLRNGGIPSSLPSLRISNSCPVTPPVSSPTSKNPKPLPNWESIAKQSMAIAKQSMASFNYPFYAVSAPASPTHRHQFHTPATIPECDESDSSTVDSGHWISFQKFAQQQPFSASMVPTSPTFNLVKPAPQQMSPNTAAFQEIGQSSEFKFENSQVKPWEGERIHDVGMEDLELTLGNGKARG
notes: BZR1, Arabidopsis thaliana, At1G75080; also called glutathione S-transferase (GST) fusion protein GST-BZR1; source: bacteria, purified (glutathione beads)
B1: binds.

From article PMC9785488, “EBF1 Negatively Regulates Brassinosteroid-Induced Apical Hook Development and Cell Elongation through Promoting BZR1 Degradation” (International Journal of Molecular Sciences, 2022)
